Assay results: article PMC11609306, “Phosphorylation determines the glucose metabolism reprogramming and tumor-promoting activity of sine oculis homeobox 1” (Signal Transduction and Targeted Therapy, 2024)

Columns and labels:
His-tagged ERK1 = biological target: T1, His-tagged ERK1 (UniProt P27361 1-379); assay: pull-down; GST pull-down: purified GST-SIX1 fusion protein with purified His-tagged ERK1/2; conditions: both partners purified
T1 construct: Extracellular signal-regulated protein kinase 1 (ERK1); Built in pET28a; also called His-tagged ERK1/2; source: E. coli BL21, purified (His-Sepharose beads)
T1 sequence (P27361 whole entry, the tested form may be a part): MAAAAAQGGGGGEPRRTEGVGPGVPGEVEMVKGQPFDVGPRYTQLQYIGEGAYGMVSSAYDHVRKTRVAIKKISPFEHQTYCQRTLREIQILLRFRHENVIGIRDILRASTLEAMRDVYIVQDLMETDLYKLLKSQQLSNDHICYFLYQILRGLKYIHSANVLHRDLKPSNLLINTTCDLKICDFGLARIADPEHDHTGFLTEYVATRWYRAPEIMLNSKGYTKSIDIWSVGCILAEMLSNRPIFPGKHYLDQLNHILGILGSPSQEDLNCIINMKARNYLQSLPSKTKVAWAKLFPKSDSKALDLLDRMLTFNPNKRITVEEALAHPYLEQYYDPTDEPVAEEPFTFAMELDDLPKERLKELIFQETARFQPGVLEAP

His-tagged ERK2 = biological target: T2, His-tagged ERK2 (UniProt P28482 1-360); assay: as above; conditions: both partners purified
T2 construct: Extracellular signal-regulated protein kinase 2 (ERK2); Built in pET28a; also called His-tagged ERK1/2; source: E. coli BL21, purified (His-Sepharose beads)
T2 sequence (P28482 whole entry): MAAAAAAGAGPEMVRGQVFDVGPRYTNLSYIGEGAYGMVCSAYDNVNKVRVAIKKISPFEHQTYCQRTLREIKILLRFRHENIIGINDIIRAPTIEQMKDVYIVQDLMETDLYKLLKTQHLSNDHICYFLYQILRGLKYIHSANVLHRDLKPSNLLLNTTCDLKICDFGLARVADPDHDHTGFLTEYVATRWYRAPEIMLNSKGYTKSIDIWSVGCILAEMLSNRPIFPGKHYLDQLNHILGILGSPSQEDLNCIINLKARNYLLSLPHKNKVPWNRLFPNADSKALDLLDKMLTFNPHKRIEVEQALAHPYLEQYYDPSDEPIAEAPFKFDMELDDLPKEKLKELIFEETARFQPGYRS

- binding result (His-tagged ERK1): binds
- binding result (His-tagged ERK2): binds
B1: GST-SIX1 fusion protein (natural protein, human, UniProt Q15475 1-284, looked up)
chain: MSMLPSFGFTQEQVACVCEVLQQGGNLERLGRFLWSLPACDHLHKNESVLKAKAVVAFHRGNFRELYKILESHQFSPHNHPKLQQLWLKAHYVEAEKLRGRPLGAVGKYRVRRKFPLPRTIWDGEETSYCFKEKSRGVLREWYAHNPYPSPREKRELAEATGLTTTQVSNWFKNRRQRDRAAEAKERENTENNNSSSNKQNQLSPLEGGKPLMSSSEEEFSPPQSPDQNSVLLLQGNMGHARSSNYSLPGLTASQPSHGLQTHQHQLQDSLLGPLTSSLVDLGS
notes: Sine oculis homeobox 1 (SIX1), human; Built in pGEX-KG; source: E. coli BL21, purified (glutathione-Sepharose 4B)
